Test results reported in the supplement of paper PMC12667976.
± gives the standard error.

B1: library; numbered along this chain (parent)
chain: MATDAALRRLLRLHRTEIAVAVDSAFPLLHALADHDVVPEDKFQETLHLKEKEGCPQAFHALLSWLLTQDSTAILDFWRVLFKDYNLERYGRLQPILDSFPKDVDLSQPRKGRKPPAVPKALVPPPRLPTKRKASEEARAAAPAALTPRGTASPGSQLKAKPPKKPESSAEQQRLPLGNGIQTMSASVQRAVAMSSGDVPGARGAVEGILIQQVFESGGSKKCIQVGGEFYTPSKFEDSGSGKNKARSSSGPKPLVRAKGAQGAAPGGGEARLGQQGSVPAPLALPSDPQLHQKNEDECAVCRDGGELICCDGCPRAFHLACLSPPLREIPSGTWRCSSCLQATVQEVQPRAEEPRPQEPPVETPLPPGLRSAGEEVRGPPGEPLAGMDTTLVYKHLPAPPSAAPLPGLDSSALHPLLCVGPEGQQNLAPGARCGVCGDGTDVLRCTHCAAAFHWRCHFPAGTSRPGTGLRCRSCSGDVTPAPVEGVLAPSPARLAPGPAKDDTASHEPALHRDDLESLLSEHTFDGILQWAIQSMARPAAPFPS

Variants of: B1
Test: AIRE transcriptional activation functional score (insulin promoter-GFP; nonsense median 0, synonymous median 1) (normalised score); higher = higher AIRE activity (more reporter activation)
Conditions: with insulin promoter-GFP reporter in HEK293
Description: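 Deep mutational scan of full-length human AIRE (codon-optimized cDNA, DT-POPCode NNN libraries over three regions) integrated at a Bxb1 landing pad in HEK293 cells carrying an insulin core promoter-GFP reporter at a Flp-In site. Cells were sorted for the top 10% GFP about 14 days after transfection. Variant frequency log-ratios (select vs non-select, TileSeq) were rescaled so that the nonsense median is 0 and the synonymous median is 1, then averaged over biological replicates.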

Point of comparison: P401K, “AIRE transcriptional activation functional score” value 1.55 ± 0.13. Against it:
- V38G — lower, -0.618 ± 0.43
- K222R — lower, 1.05 ± 0.2
- K222I — lower, 0.0162 ± 0.14
- G269E — lower, 1.1 ± 0.19
- A246K — lower, 0.609 ± 0.081
- A246D — lower, 0.858 ± 0.022
- E347K — lower, 1.11 ± 0.076
- M194W — lower, 0.214 ± 0.039
- S24V — lower, 0.582 ± 0.35
- L29Q — lower, 0.317 ± 0.23
- V118T — lower, 0.667 ± 0.45
- A452V — lower, 0.915 ± 0.25
- A505P — lower, 1.01 ± 0.39
- L93C — lower, -0.0574 ± 0.11
- S169Y — within error, 1.62 ± 0.17
- Q425D — lower, 0.431 ± 0.85
- Q358S — lower, 1.04 ± 0.18
- N295E — lower, 1.27 ± 0.02
- S464R — lower, 0.955 ± 0.15
- L146Q — lower, 1.05 ± 0.36
- L308R — lower, 0.932 ± 0.23
- L308F — lower, 0.909 ± 0.1
- L285H — lower, 0.689 ± 0.094
- L285Q — lower, 1.22 ± 0.074
- P27A — lower, 0.562 ± 0.76
- A261H — lower, 0.579 ± 0.094
- D70Q — lower, 0.436 ± 0.49
- D70T — lower, 0.428 ± 0.28
- E136I — lower, 0.792 ± 0.39
- C310L — lower, 0.935 ± 0.24
- C310R — lower, 0.907 ± 0.33
- A500I — lower, 1.1 ± 0.17
- H396Y — within error, 1.44 ± 0.066
- Y90R — lower, 0.13 ± 0.59
- R149L — within error, 1.22 ± 0.58
- R149A — lower, 1.19 ± 0.18
- R149P — lower, 0.874 ± 0.47
- Q94K — within error, 1.21 ± 0.32
- E359Q — lower, 0.92 ± 0.11
- E359F — lower, 1.18 ± 0.14
- D98C — lower, 0.078 ± 0.41
- D98S — lower, 0.163 ± 1.1
- P380H — lower, 0.534 ± 0.15
- P380C — lower, 0.499 ± 0.43
- P380G — lower, 0.801 ± 0.37
- E229A — lower, -0.0287 ± 0.2
- A429S — lower, 1.09 ± 0.17
- K161F — within error, 1.69 ± 0.18
- K161S — lower, 0.458 ± 0.68
- L392H — lower, 0.636 ± 0.29
- R174Q — lower, 0.21 ± 0.27
- R303K — lower, 1.13 ± 0.13
- L67S — lower, -0.0517 ± 0.24
- G260F — lower, 0.949 ± 0.066
- G260E — lower, 1.03 ± 0.07
- Y85T — lower, 0.418 ± 0.14
- P115S — within error, 1.58 ± 0.71
- P115G — lower, 0.828 ± 0.45
- L341Y — lower, 0.945 ± 0.15
- L341V — lower, 0.917 ± 0.12
- A343M — within error, 1.59 ± 0.066
- K120I — lower, 1.2 ± 0.15
- K120S — within error, 1.21 ± 0.44
- Q342S — lower, 1.13 ± 0.27
- P381K — lower, 1.04 ± 0.072
- R127D — lower, 0.358 ± 0.12
- L397G — lower, 0.775 ± 0.23
- L397N — lower, 0.167 ± 0.41
- K164W — within error, 1.33 ± 0.58
- N244I — within error, 1.07 ± 1.1
- N244T — lower, 1.14 ± 0.11
- N244L — lower, 0.301 ± 0.25
- T72F — lower, 0.964 ± 0.3
- T364E — lower, 0.981 ± 0.17
- W455G — lower, 0.965 ± 0.27
- G54S — lower, -0.808 ± 0.76
- P176W — lower, 1.08 ± 0.08
- E171Q — within error, 1.15 ± 0.54
- E53P — lower, -0.371 ± 0.49
- E53A — lower, 1.12 ± 0.17
- W65I — lower, -0.311 ± 0.42
- W65H — lower, 0.542 ± 0.72
- P350N — within error, 1.37 ± 0.076
